Data on one molecule can be found in publication PMC5558740, “Absence of CX3CR1 impairs the internalization of Tau by microglia” (Molecular Neurodegeneration, 2017).

Experiment [1] addresses T1, Tau42 phosphorylated by GSK-3β (phospho-Tau) (human, UniProt P10636-8 1-441, phosphorylated by GSK-3β; phosphoserine at 396 (detected with anti-p-S396); other sites not stated).
T1 construct: the Cy5-labelled form (phospho-Tau-Cy5) was used for the uptake test on microglia; also called Tau phosphorylated by GSK-3β; source: recombinant Tau42 phosphorylated in vitro by GSK-3β (Sigma), heated 5 min at 100 °C, supernatant collected
The experiment in a line: affinity chromatography; CX3CR1 peptide coupled to CNBr-activated Sepharose 4B; protein (1 mg/ml) loaded in buffer A (0.1 M Mes pH 6.4, 0.5 mM MgCl2, 2 mM EGTA); bound protein eluted with 0.5 M NaCl in buffer A; fractions read by dot immunoblot. To be noted: both partners purified.

Experiment [2] concerns the target T2, recombinant human Tau isoform containing 2 N-terminal inserts and 4 microtubule binding repeats (Tau42) (human, UniProt P10636-8 1-441).
T2 construct: also called purified Tau; source: recombinant, isolated as described previously [25], purified
Described as above. To be noted: both partners purified.

T1 sequence (P10636 other isoform, or with tags, fused parts or gaps): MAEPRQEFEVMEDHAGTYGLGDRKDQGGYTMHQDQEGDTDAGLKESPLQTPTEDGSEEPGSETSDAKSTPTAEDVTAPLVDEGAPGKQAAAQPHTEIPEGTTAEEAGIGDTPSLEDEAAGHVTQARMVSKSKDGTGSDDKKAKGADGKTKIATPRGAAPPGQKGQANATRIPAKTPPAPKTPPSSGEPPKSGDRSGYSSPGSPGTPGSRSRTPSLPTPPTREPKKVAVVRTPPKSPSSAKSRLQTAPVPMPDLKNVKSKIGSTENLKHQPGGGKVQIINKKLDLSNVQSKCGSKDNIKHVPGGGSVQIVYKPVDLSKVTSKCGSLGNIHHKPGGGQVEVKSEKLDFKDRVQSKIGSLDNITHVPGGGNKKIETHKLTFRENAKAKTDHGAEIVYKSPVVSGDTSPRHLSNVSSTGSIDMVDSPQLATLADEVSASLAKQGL
T2 sequence (P10636 other isoform, or with tags, fused parts or gaps): as above

B1: synthetic CX3CR1 peptide (aa 2-21) containing the binding region to CX3CL1 (peptide)
peptide: DQFPESVTENFEYDDLAEAC
notes: also called synthetic receptor CX3CR1; source: synthetic peptide, bought: Abyntek
Consider B1, for which the binding result in experiment [1] and in experiment [2] was “binds” throughout.
